The source of these data is patent publication US7135457 (CYTOGEN, dated 2006).

For assay [1], the target named is T1, human intestinal peptide-associated transporter HPT1 receptor domain, amino acid residues 29-273, His-tag … (human, UniProt Q12864 29-273).
T1 construct: Expressed as His-tag fusion, purified under denaturing conditions, coated on plates; not shown: poly-histidine tag (pET His-tag) at the NH2-terminal end
T1 sequence: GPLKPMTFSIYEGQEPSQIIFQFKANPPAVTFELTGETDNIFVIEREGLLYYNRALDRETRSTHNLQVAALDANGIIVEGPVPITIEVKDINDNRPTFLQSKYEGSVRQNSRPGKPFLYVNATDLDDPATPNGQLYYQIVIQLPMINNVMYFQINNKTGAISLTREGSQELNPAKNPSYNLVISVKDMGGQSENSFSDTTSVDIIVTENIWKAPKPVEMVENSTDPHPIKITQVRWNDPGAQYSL
Briefly: phage ELISA, OD on HPT1 over OD on BSA. The protocol: (§1) 6.6. Receptor ELISA Procedure 96 well plates were coated overnight with GIT receptor, BSA and, optionally, IDE (insulin degrading enzyme, an irrelevant His-fusion protein) or hTF. The plates were blocked for one hour with 0.5% BSA-PBS. After clarification, the amplified phage were diluted 1:100 in 1% BSA plus 0.05% Tween 20 in PBS and added to the plates. Following incubation of the plates on a rotator for 1 to 2 hours, the plates were washed 5 times with 1% BSA plus 0.05% Tween 20 in PBS. […] After the plates were washed 5 times, as described above, TMB substrate was added to the wells. The plates were read at 650 nm absorbance.
A general note: An ELISA detects its analyte on a solid surface through an enzyme-linked reagent.

Assay [2] addresses T2, human D2H transporter receptor domain, amino acid residues 387-685, His-tag fusion protein (human, UniProt Q07837 387-685).
T2 construct: Expressed as His-tag fusion, purified under denaturing conditions, coated on plates; not shown: poly-histidine tag (pET His-tag) at the NH2-terminal end
T2 sequence: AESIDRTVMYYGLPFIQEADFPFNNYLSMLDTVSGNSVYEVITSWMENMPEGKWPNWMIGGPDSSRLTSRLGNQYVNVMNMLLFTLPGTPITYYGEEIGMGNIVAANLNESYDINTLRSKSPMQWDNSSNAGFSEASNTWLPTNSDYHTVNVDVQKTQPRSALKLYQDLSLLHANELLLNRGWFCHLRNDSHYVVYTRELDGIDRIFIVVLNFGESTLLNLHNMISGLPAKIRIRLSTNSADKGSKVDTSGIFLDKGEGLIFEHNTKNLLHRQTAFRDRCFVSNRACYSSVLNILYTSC
Nature of the assay: phage ELISA, coated D2H domain. The protocol:
as §1
(§2) Binding to fixed Caco-2 cells, D2H and BSA was examined.

The target in assay [3] is T2, human D2H transporter receptor domain, …. Briefly: phage ELISA, OD on D2H over OD on BSA. The protocol:
as §1, §2

Assay [4] deals with T1, human intestinal peptide-associated …. Briefly: phage ELISA, coated HPT1 domain.
The target is the same in assay [5]. Nature of the assay: phage ELISA, OD on HPT1 over OD on BSA. This is another data set of the same source.

Molecule RHISEYSFANSHLMGGESKRKGCGINGSFSPTCPRSPTPAFRRT (pIII and flanks not included) [phage HCA3] had an HPT1/BSA in assay [1] of 1 ratio.

SGRTTSEISGLWGWGDDRSGYGWGNTLRPNYIPYRQATNRHRYT (pIII and flanks not included) [phage DCX26] gave an OD in assay [2] of 0.956 OD 650 nm. In assay [3], the D2H/BSA was 4 ratio.

In assay [2], RYKHDIGCDAGVDKKSSSVRGGCGAHSSPPRAGRGPRGTMVSRL (pIII and flanks not included) [phage DCX8] yielded an OD of 0.163 OD 650 nm. The same molecule registered a D2H/BSA in assay [3] of 3 ratio.

SREEANWDGYKREMSHRSRFWDATHLSRPRRPANSGDPN (pIII and flanks not included) [phage HAX9]: the OD in assay [4] was 0.382 OD 650 nm. The molecule further returned an HPT/BSA in assay [5] of 5 ratio.

The molecule RWNWTVLPATGGHYWTRSTDYHAINNHRPSIPHQHPTPI (pIII and flanks not included) [phage DCX33] had an OD in assay [2] of 0.616 OD 650 nm. Further, the D2H/BSA in assay [3] worked out at 6 ratio.

B1: phage HAX40 (peptide)
peptide: REFAERRLWGCDDLSWRLDAEGCGPTPSNRAVKHRKPRPRSPAL
notes: pIII and flanks not included; also called H44
With B1, the OD in assay [4] came to 0.991 OD 650 nm. The molecule also had an HPT/BSA in assay [5] of 15 ratio.

Molecule SDHALGTNLRSDNAKEPGDYNCCGNGNSTGRKVFNRRRPSAIPT (pIII and flanks not included) [phage HAX42] displayed an OD in assay [4] of 0.32 OD 650 nm. Also, the HPT/BSA in assay [5] is 5 ratio.

In assay [2], SQGSKQCMQYRTGRLTVGSEYGCGMNPARHATPAYPARLLPRYR (pIII and flanks not included) [phage DCX11] registered an OD of 0.222 OD 650 nm. This molecule also displayed a D2H/BSA in assay [3] of 3 ratio.

Consider SVGNDKTSRPVSFYGRVSDLWNASLMPKRTPSSKRHDDG (pIII and flanks not included) [phage DCX45], for which the OD in assay [2] stood at 0.336 OD 650 nm. For the same molecule, the D2H/BSA in assay [3] came out at 4 ratio.

In assay [2], RYSGLSPRDNGPACSQEATLEGCGAQRLMSTRRKGRNSRPGWTL (pIII and flanks not included) [phage DCX42] displayed an OD of 0.158 OD 650 nm. The D2H/BSA in assay [3] worked out at 2 ratio.
